Data set [1] concerns the molecule itself. In words: crystal structure; Hsp104ND1 crystals grown at 4 °C, space group P6_(5)22, one molecule per asymmetric unit, nucleotide-free; N domain of one molecule contacts the C1 helix of the neighboring molecule; 2.8 Å.
The target in data set [2] is T1, Hsp104N, isolated N domain of S. cerevisiae Hsp104 (first 165 residues) (S. cerevisiae, UniProt P31539 1-165).
T1 construct: Hsp104, S. cerevisiae, isolated N domain consisting of the first 165 residues, cloned into pProEX HTb; Tag cleavage by TEV is told in the general purification paragraph, not for Hsp104N by name; also called His6-Hsp104N; source: E. coli BL21-CodonPlus (DE3)-RIL, purified (Ni-NTA, anion exchange); not shown: His6, N-terminal, cleaved
As to the kind of experiment: BLI; Octet RED96; biotinylated C1 peptide immobilised on streptavidin biosensors at 0.5 µM; Hsp104N 4.3 to 137 µM in solution; 50 mM Tris-HCl pH 8.5, 20 mM ammonium citrate, 10% PEG4000, 0.1 mg/ml BSA; 25 °C; 10 min association, 10 min dissociation; equilibrium shifts from two independent measurements. The following applies: both partners purified. A general note: In BLI a coated tip is dipped into the sample, and binding shifts an interference pattern.

Where no end group is shown, it is not given here. The star is where a group is joined. Biotin = O=C1N[C@H]2[C@H](CS[C@H]2CCCCC(=O)*)N1; Ahx = NCCCCCC(=O)O

B1: Hsp104ND1, N-terminal fragment of Saccharomyces cerevisiae Hsp104 (residues 1-360) (domain or fragment, S. cerevisiae, UniProt P31539 1-360, looked up)
chain: MNDQTQFTERALTILTLAQKLASDHQHPQLQPIHILAAFIETPEDGSVPYLQNLIEKGRYDYDLFKKVVNRNLVRIPQQQPAPAEITPSYALGKVLQDAAKIQKQQKDSFIAQDHILFALFNDSSIQQIFKEAQVDIEAIKQQALELRGNTRIDSRGADTNTPLEYLSKYAIDMTEQARQGKLDPVIGREEEIRSTIRVLARRIKSNPCLIGEPGIGKTAIIEGVAQRIIDDDVPTILQGAKLFSLDLAALTAGAKYKGDFEERFKGVLKEIEESKTLIVLFIDEIHMLMGNGKDDAANILKPALSRGQLKVIGATTNNEYRSIVEKDGAFERRFQKIEVAEPSVRQTVAILRGLQPKYE
notes: Hsp104, S. cerevisiae, residues 1-360: N domain and extended D1-large domain with the first helix of the D1-small domain (C1 helix, residues 343-351); residues 4 to 352 traced; The general purification text describes Ni-NTA and TEV cleavage of an N-terminal His6 tag; also called N-terminal fragment of yeast Hsp104
For B1, the binding result in data set [1] is recorded as “binds”.

B2: Biotinylated C1 peptide (Biotin-Ahx-GEVAEPSVRQTVAILRGLQ) (peptide)
peptide: {Biotin-Ahx}-GEVAEPSVRQTVAILRGLQ
notes: Immobilised on streptavidin biosensors through the biotin; source: synthetic peptide (AAPPTec LLC)
The term Kd denotes the constant that tells how readily two partners part at equilibrium. On to B2, for which the Kd in data set [2] was found to be 14 ± 1.7 µM.

The values above are taken from paper PMC5593927, “Overlapping and Specific Functions of the Hsp104 N Domain Define Its Role in Protein Disaggregation” (Scientific Reports, 2017).
